Assay results published in PMC1278935, “Different Catalytic Mechanisms in Mammalian Selenocysteine- and Cysteine-Containing Methionine-R-Sulfoxide Reductases” (PLoS Biology, 2005).
Residue numbers refer to the chain shown, from its start. Numbers in names are those of the source.

B1: MsrB1 (Sec-containing MsrB1; Cys form MsrB1-Cys) (Mus musculus) (protein)
chain: MSFCSFFGGEVFQNHFEPGVYVCAKCSYELFSSHSKYAHSSPWPAFTETIHPDSVTKCPEKNRPEALKVSCGKCGNGLGHEFLNDGPKRGQSRFUIFSSSLKFVPKGKEAAASQGH
notes: full length, monomer; Sec forms: natural SECIS element, C-terminal His tag (five His added to own C-terminal His), from NIH 3T3 cells; C-terminally tagged form of similar activity also made
B2: MsrB1 (Sec-containing MsrB1; Cys form MsrB1-Cys) (Mus musculus; U95C) (protein)
chain: B1 chain with U95C
notes: as for B1
B3: MsrB1 (Sec-containing MsrB1; Cys form MsrB1-Cys) (Mus musculus; G77H) (protein)
chain: B1 chain with G77H
notes: as for B1
B4: MsrB1 (Sec-containing MsrB1; Cys form MsrB1-Cys) (Mus musculus; F97N) (protein)
chain: B1 chain with F97N
notes: as for B1
B5: MsrB1 (Sec-containing MsrB1; Cys form MsrB1-Cys) (Mus musculus; F97N/G77H) (protein)
chain: B1 chain with G77H, F97N
notes: as for B1
B6: MsrB1 (Sec-containing MsrB1; Cys form MsrB1-Cys) (Mus musculus; F97N/G77H/U95C) (protein)
chain: B1 chain with G77H, U95C, F97N
notes: as for B1
B7: MsrB3 (Homo sapiens; H77G) (protein)
chain: SGSCRDKKNCKVVFSQQELRKRLTPLQYHVTQEKGTESAFEGEYTGHKDPGIYKCVVCGTPLFKSETKFDSGSGWPSFHDVINSEAITFTDDFSYGMHRVETSCSQCGAHLGHIFDDGPRPTGKRYCINSAALSFTPADSSGTAEGGSGVASPAQADKAEL
notes: MsrB3A delta(1-31), residues 32-192, endoplasmic reticulum signal removed, C-terminal His tag (LEHHHHHH), E. coli BL21(DE3), monomer
B8: MsrB3 (Homo sapiens; I113E) (protein)
chain: B7 chain with G46H, I82E
notes: as for B7
B9: MsrB3 (Homo sapiens; N160Y) (protein)
chain: B7 chain with G46H, N129Y
notes: as for B7
B10: MsrB3 (Homo sapiens) (protein)
chain: B7 chain with G46H
notes: as for B7

Key:
[1] = substrate: CN(C)c1ccc(N=Nc2ccc(S(=O)(=O)N[C@@H](CC[S@@+](C)[O-])C(=O)O)cc2)cc1; test: HPLC of dabsyl-Met, Lineweaver-Burk; type: biochemical, Mus musculus; conditions: 20 mM DTT, 50 mM sodium phosphate pH 7.5, 50 mM NaCl, 37 °C
Excerpt: HPLC of dabsyl-Met, Lineweaver-Burk on MsrB1 (Sec-containing MsrB1; Cys form MsrB1-Cys)

[2] = substrate: CN(C)c1ccc(N=Nc2ccc(S(=O)(=O)N[C@@H](CC[S@@+](C)[O-])C(=O)O)cc2)cc1; test: HPLC of dabsyl-Met, Lineweaver-Burk; type: biochemical, Homo sapiens; conditions: 20 mM DTT, 50 mM sodium phosphate pH 7.5, 50 mM NaCl, 37 °C, from E. coli
Excerpt: HPLC of dabsyl-Met, Lineweaver-Burk on MsrB3

Protein	Km ([1]; Sec form from NIH 3T3) [µM]	kcat ([1]; Sec form from NIH 3T3) [s⁻¹]	Km ([2]; MsrB1 numbering) [µM]	kcat ([2]; MsrB1 numbering) [s⁻¹]	also measured
B1	500 ± 100	0.223 ± 0.0383			
B2					Km ([1]; MsrB1-Cys from E. coli): 1300 ± 200 µM; kcat ([1]; MsrB1-Cys from E. coli): 0.00183 ± 0.0005 s⁻¹
B3	800 ± 50	0.0433 ± 0.013			
B4	4300 ± 1600	0.01 ± 0.0033			
B5	6400 ± 2100	0.04 ± 0.0083			
B6					Km ([1]; MsrB1-Cys from E. coli): 13200 ± 2400 µM; kcat ([1]; MsrB1-Cys from E. coli): 0.023 ± 0.005 s⁻¹
B7			1000 ± 200	0.0283 ± 0.005	
B8			200 ± 50	0.07 ± 0.0083	
B9			1200 ± 100	0.00033 ± 0.00017	
B10					Km [2]: 800 ± 50 µM; kcat [2]: 0.827 ± 0.07 s⁻¹
